To fix the notation:
T1: PCI-Flag (human, UniProt P05154 26-406, limits assumed)
T1 construct: Full-length human PCI ORF with a C-terminal Flag tag, secreted by CHO cells and purified from the culture supernatant; also called Flag-tagged PCI
T1 chain: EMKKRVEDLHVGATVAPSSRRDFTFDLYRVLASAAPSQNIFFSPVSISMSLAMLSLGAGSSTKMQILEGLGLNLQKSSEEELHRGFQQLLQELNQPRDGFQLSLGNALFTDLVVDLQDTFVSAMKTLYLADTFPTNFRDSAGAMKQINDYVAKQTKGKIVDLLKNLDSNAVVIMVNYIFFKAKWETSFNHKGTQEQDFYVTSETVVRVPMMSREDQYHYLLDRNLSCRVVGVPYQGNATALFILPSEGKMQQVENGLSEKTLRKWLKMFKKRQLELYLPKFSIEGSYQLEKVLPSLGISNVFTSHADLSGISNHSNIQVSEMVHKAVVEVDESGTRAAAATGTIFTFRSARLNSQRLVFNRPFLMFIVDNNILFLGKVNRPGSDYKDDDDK

B1: PC19G8 (antibody, IgG1, V domains shown)
VH: EVQLQQSGAELVKPGASVKLSCTASGFDIKDTFMHWVKQRPEQGLEWIGRIDYVNGNTKYDPKFQGKATITGDTSSNTAYLQLSSLTSEDTAVYYCARGGYDVREFAYWGQGTLVTVSA
VL: QIVLTQSPAIMSASPGEKVTITCSATSSLIYMHWFQQKPGSSPELWIYSTSNLASGVPARFSGSGSGTSYSLTISRMEAEDAATYYCQQRSSYPFTFGSGTKLEIK
notes: also called clone #19G8; anti-PCI neutralizing antibody
B2: PC39C6 (antibody, IgG1, V domains shown)
VH: EVQLQQSGAELVRPGALVKLSCKASGFNIKDYYIHWVKQRPEQGLEWIGRIDLEKGNIIYDPKFQGKDNITADTSSNTAYLQLSSLTSEDTAVYYCARGGYDVPSFAYWGQGTLVTVSA
VL: B1 VL with T26S, L29V, I30S, S41T, E44K
notes: Mouse hybridoma monoclonal, IgG1, purified on Protein G; also called anti-PCI neutralizing antibody
B3: PC23D8 (antibody, IgG2a, V domains shown)
VH: B1 VH
VL: B1 VL
notes: also called anti-PCI neutralizing antibody
B4: PC23A7 (antibody, IgG2a, V domains shown)
VH: B1 VH with K30R, Y53L, G56V, K63N, G66D, K67R, G72A, S84T
VL: B1 VL with S41T, E44K
notes: Mouse hybridoma monoclonal, IgG2a, purified on Protein G; also called anti-PCI neutralizing antibody
B5: PC31E2 (antibody, V domains shown)
VH: QVQLQQSGAELVKPGASVKMSCKAFGYTFTTYPIEWMKQNHGKSLEWIGKFHPDNDDTNYNEKFKGKAKLTVEKSSSTVYLELSRLTSDDSAVYYCARGHDYDYGMDYWGQGTSVTVSS
VL: DIVLTQSPASLAVSLGQRATISCKASQSVDYDGDSYLNWYQQKPGQPPKLLIYGASNLESGTPARFSGSGSGTDFTLDIHPVEEEDAATYYCQQSNEDPPTFGGGTKLEIT
notes: as for B3

These results are taken from patent US20090035320A1 (MIE UNIVERSITY, published 2009).

What is called Kd is a measure of binding affinity in units of concentration. Usually koff stands for the first-order rate constant of dissociation. Low values mean a long-lived complex, high ones a short-lived complex. In general, kon refers to the rate constant with which the complex forms.

Residue numbers refer to the chain shown, from its start.

This test concerns the target T1, PCI-Flag. As to the kind of experiment: SPR (BIACORE 2000), PCI-Flag amine-coupled to CM5 chip, antibody injected. How it is done:
PCI-Flag was diluted to 25 μg/ml with 10 mM sodium acetate (pH5.0), and then amine-coupled to a sensor chip CM5 (BIACORE; BR-1000-14) using an amine coupling kit (BIACORE; BR-1000-50) according to the method described in the kit. Approximately 3,000 RU of PCI-Flag was immobilized onto the CM5 chip by this treatment. The kinetic analyses described below were performed on BIACORE 2000 using the sensor chip. […] After the chip was equilibrated with HBS-EP buffer, 40 μl of the antibody solution at each concentration was injected at a flow rate of 20 μl/min. In the association phase, the antibody was injected over two minutes. Then, instead of the antibody, HBS-EP buffer was injected over two minutes in the dissociation phase. After the dissociation phase, 40 μl of 10 mM HCl and then 40 μl of 0.05% SDS were injected continuously to regenerate the sensor chip. The sensorgrams obtained by the procedure described above were superimposed, and the binding rate constant (ka), dissociation rate constant (kd), dissociation constant (KD), and maximal binding (Rmax) were computed using data analysis software (BIAevaluation, ver. 3.0).
For orientation: In SPR one partner is held on a chip, and binding of the other changes the refractive index at the surface.
B1 registered a Kd of 0.126 nM, a dissociation rate constant (koff) of 2.13e-05 s⁻¹ and an on-rate constant (kon) of 168000 M⁻¹ s⁻¹.
B2 had a dissociation constant (Kd) of 5.51 nM, an off-rate constant (koff) of 0.000489 s⁻¹ and a kon of 88800 M⁻¹ s⁻¹.
Taken in the same sequence, the figures for B3 were 0.293 nM, 6.59e-05 s⁻¹ and 225000 M⁻¹ s⁻¹.
In the same order, the values of B4 are 0.473 nM, 7.17e-05 s⁻¹ and 151000 M⁻¹ s⁻¹.
In the same order, the values of B5 are 1.79 nM, 0.000313 s⁻¹ and 175000 M⁻¹ s⁻¹.
